Assay results taken from patent publication US20250145711A1 (Janssen / Centocor, published 2025).

Legend:
[1] = molecular target: T1, Human CD3 epsilon (CD3ε), on primary human pan T cells (human, UniProt P07766 23-207); experiment: flow cytometry on human T cells, anti-human IgG Fc A647 detection
T1 construct: Endogenous CD3 in the TCR complex on T cells; also called T-cell surface glycoprotein CD3 epsilon chain; T3E
Experimental: The bsAbs were assayed for their abilities bind T cells and to induce T-cell mediated cytotoxicity against H929 cells (ATCC@CRL-9068™). […] Stain buffer with no antibody was added to bottom 4 wells and assign as background control (secondary antibody alone). Parental Cris7b, CD3B695 (bivalent mAb controls) and CD3B375 (bsAb which was monovalent for Cris-7b) were added also with full dose-response curves.
Frozen T-cells were thawed in a 37° C. water bath and transferred gently into conical tube containing warm 5 mL media (RPMI+10% FBS)/1 vial of 1×10⁶ cells. Cells were mixed and centrifuged for 5 minutes at 400×g followed by resuspension in flow staining buffer, and counted and viability checked. Cells were then plated in 50 uL/50,000 cells/well into assay plates. Assay positive control mAb was added in the first column in quadruplicates at 2× at 20 nM in the bottom 4 wells. Stain buffer with no mAb was added to the top 4 wells and assigned as background controls (secondary antibody alone). Serially diluted antibody samples were added at 50 uL/well using Intergra Viaflo according to the attached plate maps and incubated for 1 hr at 37° C. After one hour incubation, 150 uL staining buffer were added to all wells, and cells were spun at 500×g for 5 minutes to pellet cells. Cells were then washed prior to addition of Alexa Fluor 647 (A647) conjugated anti human IgG Fc specific secondary detection antibody at 2 ug/mL in staining buffer. Secondary detection antibody was added at 50 uL/well to the washed cells. Plates were covered with foil and incubated for 30 minutes on ice or in the fridge. 150 uL staining buffer were added to all wells, and cells were spun at 500×g for 5 min to pellet cells. Cells were resuspended in 20 uL running buffer containing 1:1000 dilution of SYTOX™ green dead cell stain and run plates on iQue® Screener flow cytometer (Essen BioScience, Inc.). Briefly, cells were gated on FCS vs. SCS dot plot to eliminate debris. Singlets were gated on SCS-A vs SCS-H dot plot and from singlet population, live cells gated choosing BL1 channel for low/negative with SYTOX™ green viability stain (Thermo Fisher).

[2] = molecular target: T2, CD3 on primary human pan T cells (human, UniProt P07766 23-207); experiment: flow cytometry, pan T-cells
T2 construct: on cells it stands in the TCR/CD3 complex; also called Pan T-cells (CD3-positive); endogenous CD3

[3] = molecular target: T3, TRCW5 antigen (CD3δε-Fc-Avi) (biotinylated (site not stated)); experiment: ELISA after heat
T3 construct: also called recombinant CD3

[4] = molecular target: T3, TRCW5 antigen (CD3δε-Fc-Avi); experiment: ELISA
[5] = molecular target: T3, TRCW5 antigen (CD3δε-Fc-Avi); experiment: binding after heat

T3 sequence (chain, as listed by the source mutant limits assumed): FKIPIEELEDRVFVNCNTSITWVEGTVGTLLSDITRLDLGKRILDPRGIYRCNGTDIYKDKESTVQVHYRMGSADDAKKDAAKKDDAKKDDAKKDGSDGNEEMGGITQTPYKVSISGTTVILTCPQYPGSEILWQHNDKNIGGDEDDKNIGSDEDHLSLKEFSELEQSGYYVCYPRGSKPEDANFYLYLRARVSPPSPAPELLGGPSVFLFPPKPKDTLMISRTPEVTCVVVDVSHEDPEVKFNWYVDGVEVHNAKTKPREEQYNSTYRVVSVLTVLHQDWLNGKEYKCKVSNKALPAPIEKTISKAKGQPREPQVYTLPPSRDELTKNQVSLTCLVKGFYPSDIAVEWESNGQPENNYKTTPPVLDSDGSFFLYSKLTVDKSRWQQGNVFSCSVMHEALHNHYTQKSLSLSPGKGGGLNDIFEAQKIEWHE
T1 sequence (P07766 23-207 limits assumed): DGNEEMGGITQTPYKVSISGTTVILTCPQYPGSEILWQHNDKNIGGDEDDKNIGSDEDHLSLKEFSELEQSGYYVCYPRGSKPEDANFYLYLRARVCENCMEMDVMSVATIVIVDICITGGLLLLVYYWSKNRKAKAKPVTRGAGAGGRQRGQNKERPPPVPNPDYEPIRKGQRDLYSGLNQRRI
T2 sequence (P07766 23-207 limits assumed): as above

B1: BC3B102 (bispecific antibody, human IgG1, kappa, L234A L235A)
chain: QVQLVQSGAEVKKPGSSVKVSCKASGYTFTRSTMHWVKQAPGQGLEWIGYINPSSAYTNYNQKFQGRVTLTADKSTSTAYMELSSLRSEDTAVYYCASPQVHYDYNGFPYWGQGTLVTVSSGGSEGKSSGSGSESKSTGGSEIVLTQSPATLSASPGERVTLSCSASSSVSYMNWYQQKPGQAPRRWIYDSSKLASGVPARFSGSGSGRDYTLTISSLEPEDFAVYYCQQWSRNPPTFGGGTKVEIKEPKSSDKTHTCPPCPAPEAAGGPSVFLFPPKPKDTLMISRTPEVTCVVVSVSHEDPEVKFNWYVDGVEVHNAKTKPREEQYNSTYRVVSVLTVLHQDWLNGKEYKCKVSNKALPAPIEKTISKAKGQPREPQVYVYPPSREEMTKNQVSLTCLVKGFYPSDIAVEWESNGQPENNYKTTPPVLDSDGSFALVSKLTVDKSRWQQGNVFSCSVMHEALHNHYTQKSLSLSPG
heavy: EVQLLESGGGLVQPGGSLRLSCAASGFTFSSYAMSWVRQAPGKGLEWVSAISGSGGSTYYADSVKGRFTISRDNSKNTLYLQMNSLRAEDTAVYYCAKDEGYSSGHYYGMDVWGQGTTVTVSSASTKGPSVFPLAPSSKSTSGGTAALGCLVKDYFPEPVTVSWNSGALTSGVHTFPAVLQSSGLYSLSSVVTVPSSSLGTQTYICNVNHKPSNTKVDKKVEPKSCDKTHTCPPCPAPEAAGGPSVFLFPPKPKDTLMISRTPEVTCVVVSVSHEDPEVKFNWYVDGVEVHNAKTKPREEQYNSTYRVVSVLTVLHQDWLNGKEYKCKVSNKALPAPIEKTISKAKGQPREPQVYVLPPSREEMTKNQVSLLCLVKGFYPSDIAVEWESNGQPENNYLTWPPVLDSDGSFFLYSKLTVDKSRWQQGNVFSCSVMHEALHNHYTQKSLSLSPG
light: EIVLTQSPGTLSLSPGERATLSCRASQSISSSFLTWYQQKPGQAPRLLIYGASSRATGIPDRFSGGGSGTDFTLTISRLEPEDFAVYYCQHYGSSPMYTFGQGTKLEIKRTVAAPSVFIFPPSDEQLKSGTASVVCLLNNFYPREAKVQWKVDNALQSGNSQESVTEQDSKDSTYSLSSTLTLSKADYEKHKVYACEVTHQGLSSPVTKSFNRGEC
notes: IgG1 BCMAxCD3; HC1: CD3B2030 HL scFv-Fc; also called BC3B102.001; B2030 HL
EC50 [1]: 3 nM

B2: BC3B116 (bispecific antibody, human IgG1, kappa, L234A L235A)
chain: EIVLTQSPATLSASPGERVTLSCSASSSVSYMNWYQQKPGQAPRRWIYDSSKLASGVPARFSGSGSGRDYTLTISSLEPEDFAVYYCQQWSRNPPTFGGGTKVEIKGGSEGKSSGSGSESKSTGGSQVQLVQSGAEVKKPGSSVKVSCKASGYTFTRSTMHWVKQAPGQGLEWIGYINPSSAYTNYNQKFQGRVTLTADKSTSTAYMELSSLRSEDTAVYYCASPQVHYDYNGFPYWGQGTLVTVSSEPKSSDKTHTCPPCPAPEAAGGPSVFLFPPKPKDTLMISRTPEVTCVVVSVSHEDPEVKFNWYVDGVEVHNAKTKPREEQYNSTYRVVSVLTVLHQDWLNGKEYKCKVSNKALPAPIEKTISKAKGQPREPQVYVYPPSREEMTKNQVSLTCLVKGFYPSDIAVEWESNGQPENNYKTTPPVLDSDGSFALVSKLTVDKSRWQQGNVFSCSVMHEALHNHYTQKSLSLSPG
heavy: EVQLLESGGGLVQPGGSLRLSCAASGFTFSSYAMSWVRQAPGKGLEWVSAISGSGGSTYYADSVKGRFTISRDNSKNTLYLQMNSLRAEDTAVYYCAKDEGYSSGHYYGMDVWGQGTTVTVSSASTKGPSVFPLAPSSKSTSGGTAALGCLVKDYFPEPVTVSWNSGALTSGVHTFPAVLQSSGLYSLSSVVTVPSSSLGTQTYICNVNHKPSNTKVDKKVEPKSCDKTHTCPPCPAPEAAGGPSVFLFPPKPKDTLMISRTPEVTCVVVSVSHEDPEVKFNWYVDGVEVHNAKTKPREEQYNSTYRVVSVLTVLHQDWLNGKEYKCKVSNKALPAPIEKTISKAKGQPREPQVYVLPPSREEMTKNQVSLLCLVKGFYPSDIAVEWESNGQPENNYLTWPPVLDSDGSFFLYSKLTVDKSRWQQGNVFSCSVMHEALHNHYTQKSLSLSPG
light: EIVLTQSPGTLSLSPGERATLSCRASQSISSSFLTWYQQKPGQAPRLLIYGASSRATGIPDRFSGGGSGTDFTLTISRLEPEDFAVYYCQHYGSSPMYTFGQGTKLEIKRTVAAPSVFIFPPSDEQLKSGTASVVCLLNNFYPREAKVQWKVDNALQSGNSQESVTEQDSKDSTYSLSSTLTLSKADYEKHKVYACEVTHQGLSSPVTKSFNRGEC
notes: IgG1 BCMAxCD3; HC1: CD3B2030 LH scFv-Fc; also called BC3B116.001; B2030 LH
EC50 [1]: 21.8 nM

B3: BC3B112 (bispecific antibody, human IgG1, kappa, L234A L235A)
chain: QVQLVQSGAEVKKPGSSVKVSCKASGYTFTRSTMHWVRQAPGQGLEWMGYINPSSAYTNYAQKFQGRVTLTADKSTSTAYMELSSLRSEDTAVYYCASPQVHYDYAGFPYWGQGTLVTVSSGGSEGKSSGSGSESKSTGGSEIVLTQSPATLSASPGERVTLSCSASSSVSYMNWYQQKPGQAPRRWIYDSSKLASGVPARFSGSGSGRDYTLTISSLEPEDFAVYYCQQWSRNPPTFGGGTKVEIKEPKSSDKTHTCPPCPAPEAAGGPSVFLFPPKPKDTLMISRTPEVTCVVVSVSHEDPEVKFNWYVDGVEVHNAKTKPREEQYNSTYRVVSVLTVLHQDWLNGKEYKCKVSNKALPAPIEKTISKAKGQPREPQVYVYPPSREEMTKNQVSLTCLVKGFYPSDIAVEWESNGQPENNYKTTPPVLDSDGSFALVSKLTVDKSRWQQGNVFSCSVMHEALHNHYTQKSLSLSPG
heavy: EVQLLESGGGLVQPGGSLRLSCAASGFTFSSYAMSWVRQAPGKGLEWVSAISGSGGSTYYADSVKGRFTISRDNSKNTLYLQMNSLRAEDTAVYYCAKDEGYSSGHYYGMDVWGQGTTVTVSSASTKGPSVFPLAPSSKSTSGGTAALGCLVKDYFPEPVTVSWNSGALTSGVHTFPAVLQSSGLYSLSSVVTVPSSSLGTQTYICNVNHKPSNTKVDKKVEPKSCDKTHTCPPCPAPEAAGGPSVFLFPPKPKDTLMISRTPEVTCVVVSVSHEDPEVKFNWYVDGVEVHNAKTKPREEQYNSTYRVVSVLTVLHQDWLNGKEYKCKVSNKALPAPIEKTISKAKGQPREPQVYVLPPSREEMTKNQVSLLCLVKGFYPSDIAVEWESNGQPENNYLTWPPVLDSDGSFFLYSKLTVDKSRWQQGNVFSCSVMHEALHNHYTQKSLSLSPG
light: EIVLTQSPGTLSLSPGERATLSCRASQSISSSFLTWYQQKPGQAPRLLIYGASSRATGIPDRFSGGGSGTDFTLTISRLEPEDFAVYYCQHYGSSPMYTFGQGTKLEIKRTVAAPSVFIFPPSDEQLKSGTASVVCLLNNFYPREAKVQWKVDNALQSGNSQESVTEQDSKDSTYSLSSTLTLSKADYEKHKVYACEVTHQGLSSPVTKSFNRGEC
notes: IgG1 BCMAxCD3; HC1: CD3B2089-N106A HL scFv-Fc; also called BC3B112.001; B2089 HL NtoA
EC50 [1]: ≥ 300 nM

B4: BC3B111 (bispecific antibody, human IgG1, kappa, L234A L235A)
chain: QVQLVQSGAEVKKPGSSVKVSCKASGYTFTRSTMHWVRQAPGQGLEWMGYINPSSAYTNYAQKFQGRVTLTADKSTSTAYMELSSLRSEDTAVYYCASPQVHYDYNGFPYWGQGTLVTVSSGGSEGKSSGSGSESKSTGGSEIVLTQSPATLSASPGERVTLSCSASSSVSYMNWYQQKPGQAPRRWIYDSSKLASGVPARFSGSGSGRDYTLTISSLEPEDFAVYYCQQWSRNPPTFGGGTKVEIKEPKSSDKTHTCPPCPAPEAAGGPSVFLFPPKPKDTLMISRTPEVTCVVVSVSHEDPEVKFNWYVDGVEVHNAKTKPREEQYNSTYRVVSVLTVLHQDWLNGKEYKCKVSNKALPAPIEKTISKAKGQPREPQVYVYPPSREEMTKNQVSLTCLVKGFYPSDIAVEWESNGQPENNYKTTPPVLDSDGSFALVSKLTVDKSRWQQGNVFSCSVMHEALHNHYTQKSLSLSPG
heavy: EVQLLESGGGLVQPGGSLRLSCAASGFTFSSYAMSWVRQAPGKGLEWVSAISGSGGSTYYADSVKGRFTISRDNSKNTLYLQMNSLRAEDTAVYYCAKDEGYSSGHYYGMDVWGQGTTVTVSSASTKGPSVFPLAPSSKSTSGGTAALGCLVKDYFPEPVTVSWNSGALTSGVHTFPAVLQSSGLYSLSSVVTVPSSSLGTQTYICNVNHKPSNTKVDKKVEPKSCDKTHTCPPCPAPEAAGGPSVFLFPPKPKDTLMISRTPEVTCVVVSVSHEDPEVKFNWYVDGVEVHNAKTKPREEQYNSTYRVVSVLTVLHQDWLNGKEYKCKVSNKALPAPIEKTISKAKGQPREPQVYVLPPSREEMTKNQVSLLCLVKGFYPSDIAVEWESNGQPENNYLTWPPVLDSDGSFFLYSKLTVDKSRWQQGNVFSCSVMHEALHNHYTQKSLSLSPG
light: EIVLTQSPGTLSLSPGERATLSCRASQSISSSFLTWYQQKPGQAPRLLIYGASSRATGIPDRFSGGGSGTDFTLTISRLEPEDFAVYYCQHYGSSPMYTFGQGTKLEIKRTVAAPSVFIFPPSDEQLKSGTASVVCLLNNFYPREAKVQWKVDNALQSGNSQESVTEQDSKDSTYSLSSTLTLSKADYEKHKVYACEVTHQGLSSPVTKSFNRGEC
notes: IgG1 BCMAxCD3; HC1: CD3B2089 HL scFv-Fc; also called BC3B111.001; B2089 HL
EC50 [1]: 6.4 nM

B5: BC3B106 (bispecific antibody, human IgG1, kappa, L234A L235A)
chain: QVQLVQSGAEVKKPGSSVKVSCKASGYTFTRSTMHWVKQAPGQGLEWMGYINPSSAYTNYNQKFQGRVTLTADKSTSTAYMELSSLRSEDTAVYYCASPQVHYDYNGFPYWGQGTLVTVSSGGSEGKSSGSGSESKSTGGSEIVLTQSPATLSASPGERVTLSCSASSSVSYMNWYQQKPGQAPRRLIYDSSKLASGVPARFSGSGSGRDYTLTISSLEPEDFAVYYCQQWSRNPPTFGGGTKVEIKEPKSSDKTHTCPPCPAPEAAGGPSVFLFPPKPKDTLMISRTPEVTCVVVSVSHEDPEVKFNWYVDGVEVHNAKTKPREEQYNSTYRVVSVLTVLHQDWLNGKEYKCKVSNKALPAPIEKTISKAKGQPREPQVYVYPPSREEMTKNQVSLTCLVKGFYPSDIAVEWESNGQPENNYKTTPPVLDSDGSFALVSKLTVDKSRWQQGNVFSCSVMHEALHNHYTQKSLSLSPG
heavy: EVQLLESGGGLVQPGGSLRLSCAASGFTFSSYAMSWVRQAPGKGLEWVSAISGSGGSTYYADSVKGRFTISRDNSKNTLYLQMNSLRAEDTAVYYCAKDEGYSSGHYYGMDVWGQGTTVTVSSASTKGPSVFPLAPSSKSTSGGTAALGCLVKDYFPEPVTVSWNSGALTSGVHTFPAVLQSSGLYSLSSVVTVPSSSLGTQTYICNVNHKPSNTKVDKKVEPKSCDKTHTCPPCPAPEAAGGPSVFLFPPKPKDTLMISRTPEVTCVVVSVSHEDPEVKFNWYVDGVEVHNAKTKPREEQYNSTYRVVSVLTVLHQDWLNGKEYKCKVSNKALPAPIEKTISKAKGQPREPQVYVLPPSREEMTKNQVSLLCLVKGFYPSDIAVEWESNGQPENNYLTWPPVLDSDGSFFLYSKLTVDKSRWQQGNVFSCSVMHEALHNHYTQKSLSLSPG
light: EIVLTQSPGTLSLSPGERATLSCRASQSISSSFLTWYQQKPGQAPRLLIYGASSRATGIPDRFSGGGSGTDFTLTISRLEPEDFAVYYCQHYGSSPMYTFGQGTKLEIKRTVAAPSVFIFPPSDEQLKSGTASVVCLLNNFYPREAKVQWKVDNALQSGNSQESVTEQDSKDSTYSLSSTLTLSKADYEKHKVYACEVTHQGLSSPVTKSFNRGEC
notes: IgG1 BCMAxCD3; HC1: CD3B2051 HL scFv-Fc; also called BC3B106.001; B2051 HL
EC50 [1]: 6.8 nM

B6: CD3B2089 (scFv)
scFv: QVQLVQSGAEVKKPGSSVKVSCKASGYTFTRSTMHWVRQAPGQGLEWMGYINPSSAYTNYAQKFQGRVTLTADKSTSTAYMELSSLRSEDTAVYYCASPQVHYDYNGFPYWGQGTLVTVSSGGSEGKSSGSGSESKSTGGSEIVLTQSPATLSASPGERVTLSCSASSSVSYMNWYQQKPGQAPRRWIYDSSKLASGVPARFSGSGSGRDYTLTISSLEPEDFAVYYCQQWSRNPPTFGGGTKVEIK
% Binding retained on T-cells, 55° C. [2]: 1.08 fraction | % Binding retained on T-cells, 60° C. [2]: 0.494 fraction | % Binding retained on T-cells, 65° C. [2]: 0.111 fraction | % Binding retained on T-cells, RT [2]: 1 fraction | % Retained 55° C. [3]: 111% | % Retained 60° C. [3]: 108% | % Retained 65° C. [3]: 41% | EC50 [4]: 8.79 nM | % Retained 55° C. [5]: 104% | % Retained 60° C. [5]: 109% | % Retained 65° C. [5]: 15.1%
